Reference: the supplement of paper PMC9170038

Tests used:
[1] = system: MS2 coat protein; assay: apparent KD of MS2 coat protein, switch OFF state (with FMN for OFF switches, without FMN for ON switches); designed switch direction (-1 OFF switch, 1 ON switch): -1; higher = weaker reporter binding; details: FMN input: 0 or 200 uM; Eterna round: R93 (includes R88 designs)
In short: (§1)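 The buffer was 100 mM Tris-HCl pH 7.5 with 80 mM KCl and 4 mM MgCl2, used without or with constant ligand. In it, RNA switches transcribed on-chip from Illumina sequencing clusters were titrated with SNAP-549-labelled MS2 coat protein in twofold steps from 0.7 or 1.5 nM to 3 µM. Apparent KD for each design is the median of its normalised cluster binding-curve fits.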

[2] = system: MS2 coat protein; assay: apparent KD of MS2 coat protein, switch ON state; designed switch direction (-1 OFF switch, 1 ON switch): -1; higher = weaker reporter binding; details: FMN input: 0 or 200 uM; Eterna round: R93 (includes R88 designs)
In short: as §1

## UAAAGACAUGAGGAUCACCCAUGUGAGGAUAUCGGAGAUAACAGAACAUCAAGUUCAGCGAGAAGGCACAGAAA [JR_Exc001_Sub402]
[1]
  apparent KD of MS2 coat protein: 72 nM
[2]
  apparent KD of MS2 coat protein: 47.2 nM

## AGCUAGUCAGGAUAUACGAACAUGUCAUAAGACGUGAAGGGACAUGAGGAUCACCCAUGUAGAAGGGACUAGCA [74%, Web mod - With 1 more U's]
[1]
  apparent KD of MS2 coat protein: 139 nM
[2]
  apparent KD of MS2 coat protein: 36.7 nM

## AAAAAGUCAGGAUAUACAGAAAAAAAAACGAAAAAAAAUCUGUAGAAGGGACAUGAGGAUCACCCAUGUUAAAA [Ex 4 May 13]
[1]
  apparent KD of MS2 coat protein: 26.8 nM
[2]
  apparent KD of MS2 coat protein: 41.5 nM

## ACAAGAUCAGGAUAUACAUGAGGAUCACCCAUGUAUAAAAAAAAAGGGCCUUCUACAUGUAGAAGGGAUCUUGU [EX3 290: Random 26]
[1]
  apparent KD of MS2 coat protein: 19.9 nM
[2]
  apparent KD of MS2 coat protein: 14.3 nM

## AUGUAGGUAGGAUAUACAUGGAUAUACAUUCAUGUGGACCUACAUGAGGAUCACCCAUGUAGAAGGACCUAAAA [Mat - Same state - Mayanna Mod - D128]
[1]
  apparent KD of MS2 coat protein: 39.4 nM
[2]
  apparent KD of MS2 coat protein: 45 nM

## CAGUACUGAGGAUAUACAUGAGGAUCACCCAUGUGGUCAAGCUACGAAAGUAGCAAAAGUAGAAGGCAGUACUG [Ex3: 811]
[1]
  apparent KD of MS2 coat protein: 34.6 nM
[2]
  apparent KD of MS2 coat protein: 209 nM

## CUCUUGUCAGGAUAUCGAAGAAAAGAAAAGAAAGAAAAGAACGAGAAGGGACAUGAGGAUCACCCAUGUAAGAA [EteRNA is fun!]
[1]
  apparent KD of MS2 coat protein: 67.6 nM
[2]
  apparent KD of MS2 coat protein: 61.5 nM

## AGAAAACAUGAGGAUCACCCAUGUGAGGAUAUGCGAAAAGAAAGAAAAUAAAAUAAAAGCAGAAGGUACAAAUA
[1]
  apparent KD of MS2 coat protein: 31.3 nM
[2]
  apparent KD of MS2 coat protein: 29.9 nM

## AGGCAGACAGGAUAUACUUGGGCAGCCAAUAUAAUAAUAUAACAUGAGGAUCACCCAUGUAGAAGGGUCAGAAA [JR_Exc002_Sub209]
[1]
  apparent KD of MS2 coat protein: 86.7 nM
[2]
  apparent KD of MS2 coat protein: 62.6 nM

## AGUUGGCGAGGAUAUACAUGAGGAUCACCCAUGUGAGAGAAAAAAGUGGAAAAGAAAAGUAGAAGGCGCUGACA [Mat - Exclusion 3 - Lego mod - D90]
[1]
  apparent KD of MS2 coat protein: 119 nM
[2]
  apparent KD of MS2 coat protein: 39.4 nM

## AGCAAGUCAGGAUAUACGAACAAGACAAAAGACGUGAAGGGACAUGAGGAUCACCCAUGUAGAAGGGACUAGCA [74%, Web mod - With 3 less U's]
[1]
  apparent KD of MS2 coat protein: 61.7 nM
[2]
  apparent KD of MS2 coat protein: 59.8 nM

## AAACAUGGAGGAUAUACAUGAGGAUCACCCAUGUGUAUAAAAAAAUAUACAAAAGAAUGUAGAAGGCCAUGAAA [Ex 3 Snow]
[1]
  apparent KD of MS2 coat protein: 54.2 nM
[2]
  apparent KD of MS2 coat protein: 36.1 nM

## AAGAAGAGAGGAUAUACUAAAGAAAUGAAAAGAAAUAAAGAACAUGAGGAUCACCCAUGUAGAAGGCUCAAGAA ['Ammu Ahotepre]
[1]
  apparent KD of MS2 coat protein: 21 nM
[2]
  apparent KD of MS2 coat protein: 25.5 nM

## AACAUACAUGAGGAUCACCCAUGUCAGGAUAUGCCGGGUUAGAACCAAAAAAAAAAACGUAGAAGGGACAAAAA [Bilbo Confounded 4 - Jieux - Exclusion 1]
[1]
  apparent KD of MS2 coat protein: 140 nM
[2]
  apparent KD of MS2 coat protein: 234 nM

## AACAAGACAGGAUAUACAUGAGGAUCACCCAUGUGAGAAUUAAGUGGCGUAACACAAAGUAGAAGGGUCAUGGA [Ruby 4]
[1]
  apparent KD of MS2 coat protein: 56.2 nM
[2]
  apparent KD of MS2 coat protein: 38 nM

## AAUUCACAUGAGGAUCACCCAUGUAAGGAUAUCGAAAUAAAACUAAACAAAAAACAAACGAGAAGGUACAAAAA [Exclusion 1 design 6]
[1]
  apparent KD of MS2 coat protein: 23.3 nM
[2]
  apparent KD of MS2 coat protein: 25 nM

## UAGAACCUAGGAUAUACUUGGACCACUAAUUUACAGAUAUAACAUGAGGAUCACCCAUGUAGAAGGAGGAGUAA [JR_Exc002_Sub202]
[1]
  apparent KD of MS2 coat protein: 25.7 nM
[2]
  apparent KD of MS2 coat protein: 36.8 nM

## AAGAAACAUGAGGAUCACCCAUGUCAGGAUAUUGAAGAAAGAAAGAAAGAAAGAAGAACAAGAAGGGACAAAGG [Gaius Vitrasius Pollio]
[1]
  apparent KD of MS2 coat protein: 33.3 nM
[2]
  apparent KD of MS2 coat protein: 44.3 nM

## AAAAAACAUGAGGAUCACCCAUGUGAGGAUAUCUAAAACAAAACAAAAACAAAACAAAGGAGAAGGUAUAUGAA [Amethyst 67]
[1]
  apparent KD of MS2 coat protein: 29.2 nM
[2]
  apparent KD of MS2 coat protein: 19 nM

## CAAAGGUGAGGAUAUACAUAACUAUGACGAAAGUCAUAAAAACAUGAGGAUCACCCAUGUAGAAGGCACCACAA [E2 64% 1]
[1]
  apparent KD of MS2 coat protein: 31.3 nM
[2]
  apparent KD of MS2 coat protein: 38.1 nM

## AAAAAACGAGGAUAUACAAAAACAAAAGGAACAAAAUACAAACAUGAGGAUCACCCAUGUAGAAGGCGUAAAAA [Default title]
[1]
  apparent KD of MS2 coat protein: 23.5 nM
[2]
  apparent KD of MS2 coat protein: 29.5 nM

## AUCAUGUUAGGAUAUACAAGAAAAGAAAAGAAAGAAAAGAAGUAGAAGGAACAUGAGGAUCACCCAUGUAAGAA [EteRNA is fun!]
[1]
  apparent KD of MS2 coat protein: 32.3 nM
[2]
  apparent KD of MS2 coat protein: 23.6 nM

## AAUAUCGGAGGAUAUGCAUAGAUAAAGAAUUAUGUUAAAACACAUGAGGAUCACCCAUGUAGAAGGCCGAUAAA [AJ 8]
[1]
  apparent KD of MS2 coat protein: 88 nM
[2]
  apparent KD of MS2 coat protein: 22.2 nM
